The nature of this data set: yeast display, Sf9 membrane polyspecificity reagent, FACS + sequencing; frameworks hold sequencing errors. Summed up: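 Galactose-induced (36–48 hours) yeast carrying a synthetic nanobody display library were exposed to 10% biotinylated, detergent-solubilized Sf9 membrane reagent at 4 °C for 1 hour. FACS followed streptavidin microbead enrichment, using low and high (top ~1%) gates for expression (anti-HA) and reagent binding (streptavidin). Colony PCR, MiSeq 2 × 250 sequencing and CDR-length filtering followed. Labels for polyreactivity reflect the gate of origin.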
As for “QVQLVESGGGLVQAGGSHRLSCAASGSTFVYYAMGWYRQAPGKERELVADISSSTGSTYYADSVKGRFTISRDNAKNTVYLQMNSLKPEDTAVYYCAAGRLKFWYTYIIYDFYYWGQGTQVTVSS”, the “polyreactivity (PSR sort gate)” value is reported as “low polyreactivity”.

Consider “QVQLVESGGGLVQAGGSHRLSCAASGSTFWRYAMGWYRQAPGKERELVAAITRRGSSTYYADSVKGRFTISRDNAKNTVYLQMNSLKPEDTAVYYCAREPYPYIRTYILGNYWGQGTQVTVSS”, for which the “polyreactivity (PSR sort gate)” value was “high polyreactivity”.

As for “QVQLVESGGGLVQAGGSHRLSCAASGSTFYGYAMGWYRQAPGKESELVAAIRFSGDRTYYADSVKGRFTISRDNAKNTVYLQMNSLKPEDTAVYYCAAYGYPYQRKYGSWGQGTQVTVSS”, the “polyreactivity (PSR sort gate)” value is “high polyreactivity”.

Consider “QVQLVESGGGLVQAGGSHRLSCAPSGFTLADYTMAWYRPAPGKERELVAAITSGASTYYADSVKGRFTISRDNAKNTVYLQMNSLKPEDTAGYYCAARNDYYNTFSGYDYWGQGTQVTVSS”, for which the “polyreactivity (PSR sort gate)” value is on record as “low polyreactivity”.

For the sequence “QVQLVESGGGLVQAGGSHRLSSAASGNTFGINAMGWYRQAPGKERELVASISFTGSSTYYADSVKGRFTISRDNAKNTVYLQMNSLKPEDTAVYYCNRDRITLYEYDYWGQGTQVTVSS”, the “polyreactivity (PSR sort gate)” value is “low polyreactivity”.

Regarding “QVQLVESGGGLVQAGGSIPLTCAASGRTLWGYAMGWYSQAPGKEREMVAAITSGGSTYYADSVKGRFTISRDNAKYYVYLQMNSLKPEDTAVDYCNAVTSIQTSYPSNWGMMDYWGQGSQVTVSS”, the “polyreactivity (PSR sort gate)” value is “low polyreactivity”.

Consider “QVQLVESGGGLVQAGGSIRLICAASGSIFRLYAKGWYRQAPGKEREFVAAISSRGGSTYYADSVKGRFTISRDKAKNTVYLEMNSLKPEDSAVDYCAVYGYHEGGYWGQGTQVTVSS”, for which the “polyreactivity (PSR sort gate)” value was “high polyreactivity”.

“QVQLVESGGGLVQAGGSIRLSCAASGFIFGLYDMGWYRQAPGKERELDAAISWSGGSTYYADSVKGRFTISRDNAKNTVYLQMNSLKPEDTAVYYCNKDLYADGEYNYDYWGQGTQVTVSS”: the “polyreactivity (PSR sort gate)” value was “low polyreactivity”.

Consider “QVQLVESGGGLVQAGGSIRLSCAASGFIFYYNPMGWSRQEPGIERELVADITSGRSTYYADSVKGRFTISRDNAKISVYLQLNSLKPEDTAVIYCAVDYDQFGSDEELPPGSDYWGQGTQVTVSS”, for which the “polyreactivity (PSR sort gate)” value was “low polyreactivity”.

In the case of “QVQLVESGGGLVQAGGSIRLSCAASGFTFRSYTMGWYRQAPGKESELVAAITSRGTSTYYADSVKGRFTIPRDNAKNAVYLQMNSLKPEDTAVYYCNADGTRYAGDDYWGQGTQVTVSS”, the “polyreactivity (PSR sort gate)” value is “high polyreactivity”.

As for “QVQLVESGGGLVQAGGSIRLSCAASGIIFDTYAMGWYRQAPGKERELVAVISASGGSTYYADSVKGRFTISRDNAKNTVYLQMNSLKPEDTAVYYCAARHSLYGYWGQGTQVTVSS”, the “polyreactivity (PSR sort gate)” value was “high polyreactivity”.

For the sequence “QVQLVESGGGLVQAGGSIRLSCAASGLTLIVNSMGWYRQAPGKERDLVASITIGGTTYADSVKGRFTISRDNAKNTVYLQMNSLKTEVTAVYYCAADYSSFSIDTGYDYWGQGTQVTVSS”, the “polyreactivity (PSR sort gate)” value was “low polyreactivity”.

Consider “QVQLVESGGGLVQAGGSIRLSCAASGRIFIYNVMGWYRQAPGKERELVATISTGGTTNYADSVKGRFTISRDNAKNTVYLQMNSLKPEETAVYYCIRGSGYWYLPAVKYDHWGQGTQVTVSS”, for which the “polyreactivity (PSR sort gate)” value is “low polyreactivity”.

Consider “QVQLVESGGGLVQAGGSIRLSCAASGRTFACNSMGCYRQAPGKERELVARIRSSGSTYYADSVKGRFTISRDNAKNTVYLQMNSLKPEDTAVYYCAADIRFWYGYYYWGQGTQVTVSS”, for which the “polyreactivity (PSR sort gate)” value was “high polyreactivity”.

With “QVQLVESGGGLVQAGGSIRLSCAASGRTFSKYTMGWYRQAPGKERELVAVISRSGTRTYYADSVKGRFTISRDNAKNTVYLQMNSLKAEDTAVYYCAAKDERRSFGMGYWGQGTHVTVSS”, the “polyreactivity (PSR sort gate)” value is “high polyreactivity”.

As to “QVQLVESGGGLVQAGGSIRLSCAASGSIFGGYDMGWYRQAPGKERELVSAIDADAGSTYYADSVKGRFTISRDNAKNTVYLQMYSLKPEDTSDDYCGAESYPYFITLYVFTLYGYWGQGTQVTVAS”, the “polyreactivity (PSR sort gate)” value is “low polyreactivity”.

For “QVQLVESGGGLVQAGGSIRLSCAASGSIFVSNAMGWYRQAPGKERELVAAISGGGSTYYADSVKGRFTISRDNAKNTVYLQMNSLKPEDTAVYYCAKKGGHRTYGYDSWGQGTQVTVSS”, the “polyreactivity (PSR sort gate)” value is on record as “low polyreactivity”.

Take “QVQLVESGGGLVQAGGSIRLSCAASGSTYFVYTMGWYRQATGQERELVAAISGSGRSTSYADSVKGRFTISRDNAKNTVYLQMNSLKPEDNAVYYCAARSHVYLRGSTFEFNYWGQGTQVTVSS”: the “polyreactivity (PSR sort gate)” value is recorded as “high polyreactivity”.

“QVQLVESGGGLVQAGGSIRLTCAASGSIFKLYAMGWYRQATGKERELVAAISWRGGSTYYADSVKGRFTISRDIAKNTVYLQMNSLKPEDTAVYYCAAEYRQYDYWGQGTQVTVSS”: the “polyreactivity (PSR sort gate)” value is “high polyreactivity”.

As to “QVQLVESGGGLVQAGGSIRLTCAASGSTFWEYVMGWYRQAPGKERELVAAINSGGRTYYADSVKGRFTISRDNAKNTVYLQMNSLKPEDTAVYYCAADTVYRTHHYAQHYYYWGQGTQVTVSS”, the “polyreactivity (PSR sort gate)” value is reported as “high polyreactivity”.

In the case of “QVQLVESGGGLVQAGGSLGLSCAASGFTFGHYAMGWYRPAPGKERELVAAISIDGGRTYYADSVKGRFTISRDNAKKTVYLQMNSLKPEDTAVYYCAVPGWVYYTSDYDYWGQGTQVTVSS”, the “polyreactivity (PSR sort gate)” value is reported as “high polyreactivity”.

Turning to “QVQLVESGGGLVQAGGSLGLSCAASGFTFYFYAMGWYRQAPGKERELVAANSRGTSTYYADSVKGRFTISRDNAKKTVYLQMNRLKPEDTAVYYCAARGLWPYDDWGQGTQVTVSS”, the “polyreactivity (PSR sort gate)” value is listed as “low polyreactivity”.

On to “QVQLVESGGGLVQAGGSLGLSCAASGRIFWTYAMGWYRQAPGKERELVASITWSGGSTYYADSVKGRFTISRDNANNTDYLQMNSLKPEDTSVYYCNTDVLAPYDSGYWGQGTQVTVSS”, for which the “polyreactivity (PSR sort gate)” value is on record as “low polyreactivity”.

On to “QVQLVESGGGLVQAGGSLGLSCAASGRSFRYYAMGWYIQAPGKERELVAAINWSGGSTYYADSVKGRFTISRDNAKNTVYLHMNRLKPEDTAVYYCNTRWYVGDDWGQGTQVTVSS”, for which the “polyreactivity (PSR sort gate)” value was “high polyreactivity”.

For “QVQLVESGGGLVQAGGSLGLSCAASGRTFDDYSMGWYRQAPGKEMEFVAGITDNGGGTNYADSVKGRFTISRDNAMNTVYLQMNSLKPEDTAVYYCNAASDDFFPGRSTYGRDYWGQGTQVTVSS”, the “polyreactivity (PSR sort gate)” value is reported as “low polyreactivity”.

For the sequence “QVQLVESGGGLVQAGGSLGLSCAASGRTFSFYGMGWYRQAPGKERELVAAINSDSRTNYADSVKGRFTISRDNAKNTVYLQMNSLKPEDTAVYYCNAYWYTSTGQYSYEYWGQGTQVTVSS”, the “polyreactivity (PSR sort gate)” value is recorded as “low polyreactivity”.

For “QVQLVESGGGLVQAGGSLGLSCAASGRTFTPYAMGWYRQAPGIERELVAAIDTSGGSTYADSVKGRFTMSRDNAKNTVYLQMNSLKQEDTAVYYCNVDSAWYPYETEDDWGQGTQVTVSS”, the “polyreactivity (PSR sort gate)” value is given as “low polyreactivity”.

For the sequence “QVQLVESGGGLVQAGGSLGLSCAASGRTLYRYAMGWYRQARGKERELVAAIRSGGRTNYADSVKGRFTISRDNAKNTVYLQMNSLKPEDTAVYYCAAGTLRYPSTYVDWGQGTQVTVSS”, the “polyreactivity (PSR sort gate)” value is “high polyreactivity”.

On to “QVQLVESGGGLVQAGGSLGLSCAASGSIFLRYTLGWYRQAPGKERELVAAISWSGGSTYYADSVKGRFTMSRDNAKNNVYLQMNSLKREDTAVYYCNAVYASWSYPGYDYWGQGTQVTVSS”, for which the “polyreactivity (PSR sort gate)” value is “high polyreactivity”.

“QVQLVESGGGLVQAGGSLGLSCAPSGYTFVPYVMGWYRQAPGKERELVAAISRGGSTYYADSVKGRFTISRDHAKNTVYLQMNSLKPEDTAVYYCNAGWFKYYPNLQAFKYWGQGTQVTVSS”: the “polyreactivity (PSR sort gate)” value is listed as “high polyreactivity”.

As for “QVQLVESGGGLVQAGGSLGLSSAASGIIFLTYAMGWYSQAPGKDRELVAAINSTGSTNYADSVKGRFTISRDNAKNTVYLQMNSLTPEDTAVYYCAAEGLPYVRVFDFVSRYDYWGQGTQVNVSS”, the “polyreactivity (PSR sort gate)” value is “low polyreactivity”.

For “QVQLVESGGGLVQAGGSLHLSCAASGRIFRVNAMGWYRQAPGKERELVAAISYRGGRTYYADSVKGRFTFSRDNAKNTVYLQMNSLKPEDTAVYYCAAKVWARVDGRQFRMEYWGQGTQVTVSS”, the “polyreactivity (PSR sort gate)” value is on record as “high polyreactivity”.

In the case of “QVQLVESGGGLVQAGGSLLISCAASGSTFLLNAMGWYRQAPGKERELVAAITGSGTTTYYADSVKGRFTISRDNAKNTVFLHMNSLKPEDTAVYYCAAYAYYHTGDDYWGQGTQVTVSS”, the “polyreactivity (PSR sort gate)” value was “high polyreactivity”.

As for “QVQLVESGGGLVQAGGSLLLICADSGITFYGNAMGWYRQAPGKERELVAAISSSGGTTYYADSVKGRFTISRDNAKNTVYLQMNSLKPEDTAVYYCNAVDGIHPYASPSFQQYDYWGQGTQVTVSS”, the “polyreactivity (PSR sort gate)” value is recorded as “low polyreactivity”.

Regarding “QVQLVESGGGLVQAGGSLLLNCAASGITFAGNAMGWYRQAPGKERELLAAISGSGGSTSYADSVKGRFTISRDDAKNTVYLQMNSLKPEDTAVYYGSAASRLYHWHALFGSWGQGTQVTVSS”, the “polyreactivity (PSR sort gate)” value was “low polyreactivity”.

In the case of “QVQLVESGGGLVQAGGSLLLSCAASGFSFEKNAMGWYIQEPGKERELVAAISRGGSTYADSVKGRFTISRDNAKNTVYLQMYSRKPVDTAVYYCAADTVYIFSSAINGEFGYWGQGTQVTVSS”, the “polyreactivity (PSR sort gate)” value is “low polyreactivity”.

As for “QVQLVESGGGLVQAGGSLLLSCAASGFTFKYYAMGWYRQEPGKERELVAAINRSVGSTYYADSVKGRFTISRDNAKNTVYLQMNSLKPEDTAVYYCNARVRVPVTLHDYWGQGTQVTVSS”, the “polyreactivity (PSR sort gate)” value is recorded as “high polyreactivity”.

On to “QVQLVESGGGLVQAGGSLLLSCAASGFTFSVYAMGWYRQEPGKERELVAAINFSGGNTFYADSVKGRFTISRDYAKNTVYLQMNSLKPEDSAVYYCAAEDYKITRYVVRWYEYWGQGTQVTVSS”, for which the “polyreactivity (PSR sort gate)” value was “high polyreactivity”.

Regarding “QVQLVESGGGLVQAGGSLLLSCAASGFTFWSYAMAWYRQAPRKERELVADISWSGGSTHYADSVKGRFTISRDNAKNTVYLQMNSLKPEDTAVYYCARRFLYPYDHWGQGTQVTVSS”, the “polyreactivity (PSR sort gate)” value was “high polyreactivity”.

“QVQLVESGGGLVQAGGSLLLSCAASGGTLRYYAMGWYRQAPGKEREFVASISRSGGSTYYADSVKGRFTISRDNAKNTVYLQMNSLKPEDTAVYYCAAYWSPGYTTRRGYWGQGTQVTVSS”: the “polyreactivity (PSR sort gate)” value is “high polyreactivity”.

These data come from the nanobody polyreactivity screen of Harvey et al. (2022).
